Experimental data: US20260209368A1 (PROMETHEUS BIOSCIENCES, published 2026)

T1: recombinant human TL1A protein (human, UniProt O95150 72-251)
T1 sequence (looked up): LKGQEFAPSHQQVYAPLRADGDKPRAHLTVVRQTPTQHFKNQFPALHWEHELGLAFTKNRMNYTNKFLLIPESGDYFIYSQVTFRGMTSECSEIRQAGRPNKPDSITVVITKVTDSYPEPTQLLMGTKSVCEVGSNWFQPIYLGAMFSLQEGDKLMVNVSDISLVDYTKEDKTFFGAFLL

T2: recombinant cynomolgus monkey TL1A protein (cynomolgus monkey, UniProt G7PRK8 72-251)
T2 sequence: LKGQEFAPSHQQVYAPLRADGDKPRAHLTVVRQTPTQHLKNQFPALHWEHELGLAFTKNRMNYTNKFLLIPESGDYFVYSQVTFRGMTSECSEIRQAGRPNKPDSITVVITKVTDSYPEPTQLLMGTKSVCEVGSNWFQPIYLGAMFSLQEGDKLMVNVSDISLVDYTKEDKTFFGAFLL

T3: TL1A in human blood (human, UniProt O95150 72-251, limits assumed)
T3 sequence (looked up): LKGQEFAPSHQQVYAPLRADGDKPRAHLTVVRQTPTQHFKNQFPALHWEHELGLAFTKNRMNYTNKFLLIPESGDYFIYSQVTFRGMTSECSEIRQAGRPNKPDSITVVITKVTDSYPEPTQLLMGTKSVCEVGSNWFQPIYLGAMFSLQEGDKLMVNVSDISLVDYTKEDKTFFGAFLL


Tests used:
[1] = target: T1, recombinant human TL1A protein; assay: cell-based or functional assay
[2] = target: T2, recombinant cynomolgus monkey TL1A …; assay: cell-based or functional assay
[3] = target: T2, recombinant cynomolgus monkey TL1A …; assay: ELISA on recombinant TL1A protein, antibody titrated, A450 nm read
Procedure: ELISA for each protein was performed at least three times. The data from a representative experiment are shown and are mean±SD. Abbreviations: A=absorbance, Ab=antibody, Cyno=cynomolgus, nm-nanometer, nM-nanomolar. […] Samples were assayed in triplicate, on two separate occasions. Data presented are the mean TL1A concentrations of three animals per group+SD. Samples collected from animals administered isotype control antibody are shown in circles, samples collected from animals administered anti-TL1A are shown in the triangles and square.

TL1A in human blood = target: T3, TL1A in human blood; assay: cell-based or functional assay

| IC50 of inhibition of TL1A-induced caspase activation in TF-1 cells [1] | IC50 of inhibition of TL1A-induced caspase activation in TF-1 cells [2] | IC50 of inhibition of the IFN-γ response in monkey whole blood stimulated with immune complex, IL-12 and IL-18 [2] | EC50 (read off the curve) [3] | % Inhibition at 1 nM Ig; inhibition of interferon gamma release in human blood (TL1A in human blood) | % Inhibition at 10 nM Ig; inhibition of interferon gamma release in human blood (TL1A in human blood) | Binder |
| --- | --- | --- | --- | --- | --- | --- |
| 270 pM | 590 pM | 1540 pM | ~400 pM |  |  | anti-TL1A antibody A219 (antibody, V domains shown, Humanized monoclonal IgG1 with a kappa light chain, designed to abolish effector functions) VH: QVQLVQSGAEVKKPGASVKVSCKASGFDIQDTYMHWVKQRPGQGLEWMGRIDPASGHTKYDPKFQVRVTITRDTSTSTVYLELSSLRSEDTAVYYCARSGGLPDVWGQGTTVTVSS VL: EIVLTQSPGTLSLSPGERATLSCRASSSVSYMYWYQQKPGQAPRPLIYATSNLASGIPDRFSGSGSGTDFTLTISRLEPEDFAVYYCQQWEGNPRTFGGGTKLEIK |
|  |  |  |  | 51.3% | 72.4% | A147 (antibody, V domains shown) VH: QVQLVQSGAEVKKPGASVKVSCKASGFDIQDTYMHWVKQRPGQGLEWMGRIEPASGHIKYDPKFQGRVTMTRDTSTSTVYMELSSLRSEDTAVYYCARSGGLPDWWGQGTTVTVSS VL: EIVLTQSPGTLSLSPGERATLSCRASSSVSYMYWYQQKPGQAPRPLIYATSNLASGIPDRFSGSGSGTDFTLTISRLEPEDFAVYYCQQWEGNPRTFGGGTKLEIK |
|  |  |  |  | 59.8% | 75.2% | A219 (antibody, V domains shown) VH: QVQLVQSGAEVKKPGASVKVSCKASGFDIQDTYMHWVKQRPGQGLEWMGRIDPASGHTKYDPKFQVRVTITRDTSTSTVYLELSSLRSEDTAVYYCARSGGLPDVWGQGTTVTVSS VL: EIVLTQSPGTLSLSPGERATLSCRASSSVSYMYWYQQKPGQAPRPLIYATSNLASGIPDRFSGSGSGTDFTLTISRLEPEDFAVYYCQQWEGNPRTFGGGTKLEIK |
|  |  |  |  | 46% | 72.2% | A217 (antibody, V domains shown) VH: QVQLVQSGAEVKKPGASVKVSCKASGFDIQDTYMHWVKQRPGQGLEWMGRIDPASGHTKYDPKFQVRVTITRDTSTSTVYMELSSLRSEDTAVYYCARSGGLPDVWGQGTTVTVSS VL: EIVLTQSPGTLSLSPGERATLSCRASSSVSYMYWYQQKPGQAPRPLIYATSNLASGIPDRFSGSGSGTDFTLTISRLEPEDFAVYYCQQWEGNPRTFGGGTKLEIK |
|  |  |  |  | 48.6% | 69.8% | A213 (antibody, V domains shown) VH: QVQLVQSGAEVKKPGASVKVSCKASGFDIQDTYMHWVRQRPGQGLEWMGRIDPASGHTKYDPKFQVRVTITTDTSTSTVYMELSSLRSEDTAVYYCARSGGLPDVWGQGTTVTVSS VL: EIVLTQSPGTLSLSPGERATLSCRASSSVSYMYWYQQKPGQAPRPLIYATSNLASGIPDRFSGSGSGTDFTLTISRLEPEDFAVYYCQQWEGNPRTFGGGTKLEIK |
|  |  |  |  | 46.8% | 71.2% | A212 (antibody, V domains shown) VH: QVQLVQSGAEVKKPGASVKVSCKASGFDIQDTYMHWVRQRPGQGLEWIGRIDPASGHTKYDPKFQVRATITTDTSTSTAYLELSSLRSEDTAVYYCARSGGLPDVWGQGTTVTVSS VL: EIVLTQSPGTLSLSPGERATLSCRASSSVSYMYWYQQKPGQAPRPLIYATSNLASGIPDRFSGSGSGTDFTLTISRLEPEDFAVYYCQQWEGNPRTFGGGTKLEIK |
|  |  |  |  | 36.9% | 63.2% | A220 (antibody, V domains shown) VH: QVQLVQSGAEVKKPGASVKVSCKASGFDIQDTYMHWVKQRPGQGLEWMGRIDPASGHTKYDPKFQVRVTMTRDTSTSTAYLELSSLRSEDTAVYYCARSGGLPDVWGQGTTVTVSS VL: EIVLTQSPGTLSLSPGERATLSCRASSSVSYMYWYQQKPGQAPRPWIYATSNLASGIPDRFSGSGSGTDFTLTISRLEPEDFAVYYCQQWEGNPRTFGGGTKLEIK |
